Substrate: Nc1ncnc2c1ncn2[C@@H]1O[C@H](COP(=O)(O)O)[C@@H](O)[C@H]1O
Assay: Activity at alkaline phosphatase

B1: Alkaline phosphatase, tissue-nonspecific isozyme (Homo sapiens), P05186 (protein)
chain: MISPFLVLAIGTCLTNSLVPEKEKDPKYWRDQAQETLKYALELQKLNTNVAKNVIMFLGDGMGVSTVTAARILKGQLHHNPGEETRLEMDKFPFVALSKTYNTNAQVPDSAGTATAYLCGVKANEGTVGVSAATERSRCNTTQGNEVTSILRWAKDAGKSVGIVTTTRVNHATPSAAYAHSADRDWYSDNEMPPEALSQGCKDIAYQLMHNIRDIDVIMGGGRKYMYPKNKTDVEYESDEKARGTRLDGLDLVDTWKSFKPRYKHSHFIWNRTELLTLDPHNVDYLLGLFEPGDMQYELNRNNVTDPSLSEMVVVAIQILRKNPKGFFLLVEGGRIDHGHHEGKAKQALHEAVEMDRAIGQAGSLTSSEDTLTVVTADHSHVFTFGGYTPRGNSIFGLAPMLSDTDKKPFTAILYGNGPGYKVVGGERENVSMVDYAHNNYQAQSAVPLRHETHGGEDVAVFSKGPMAHLLHGVHEQNYVPHVMAYAACIGANLGHCAPASSAGSLAAGPLLLALALYPLSVLF
Work on B1 yielded a Km of 441 µM.
